± gives the standard error. This sample holds only a part of the variants without activity.
B1: glmS ribozyme (parent)
chain: AUAAAAGCGCCAGAACUACAGAAAUGUAGUUGACGAGGAGGAGGUUUAUCGAAUUUUCGGCGGAUGCCUCCAAA

Experiments:
Settings in all cases: with glucosamine-6-phosphate
[1] = variants of: B1; assay: self-cleavage kobs at 640 uM GlcN6P; higher = faster cleavage; RNA array
How it was run: (§1)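 On sequenced MiSeq chips, barcoded ribozyme variants were made in situ by E. coli RNA polymerase and followed at 37 °C through a hybridised Cy3 probe. Glucosamine-6-phosphate was flowed in at 40 μM to 10 mM in HEPES/KCl/Mg(OAc)2 buffer. Exponential fits to normalised per-tile medians gave kobs, and weighted Michaelis–Menten fits gave kcat and KM.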

[2] = variants of: B1; assay: self-cleavage kobs at 2500 uM GlcN6P; higher = faster cleavage; RNA array
How it was run: as §1

[3] = variants of: B1; assay: self-cleavage kobs at 10000 uM GlcN6P; higher = faster cleavage; RNA array
How it was run: as §1

Row | Variant | self-cleavage kobs at 640 uM GlcN6P [1] | self-cleavage kobs at 2500 uM GlcN6P [2] | self-cleavage kobs at 10000 uM GlcN6P [3]
1 | C10G G44U C70U | < 1e-05 s⁻¹ |  | 
2 | U47G G51U | < 1e-05 s⁻¹ |  | 
3 | C8G C10U A14G C34A U69G | 0.000745 ± 0.00024 s⁻¹ | < 1e-05 s⁻¹ | 
4 | G32A G66U C68G | 0.000111 ± 3.9e-05 s⁻¹ |  | 
5 | G32C G37U G38C | < 1e-05 s⁻¹ | < 1e-05 s⁻¹ | 
6 | G26U G60A C68A | 9.37e-05 ± 4.6e-05 s⁻¹ |  | 
7 | A14C G38U G44U C68G | < 1e-05 s⁻¹ | < 1e-05 s⁻¹ | 
8 | G40A A42G A53U | 0.000733 ± 0.00023 s⁻¹ | 0.000522 ± 0.00021 s⁻¹ | 
9 | G29C A42G G43U G51C G62C | < 1e-05 s⁻¹ |  | 
10 | G51U C67U U69C | 5.75e-05 ± 2.5e-05 s⁻¹ |  | 
11 | G43U G66U C71G | < 1e-05 s⁻¹ | < 1e-05 s⁻¹ | 
12 | C34G A36G C71U | < 1e-05 s⁻¹ |  | 
13 | A15C U54C G66U C70U | 7.59e-05 ± 1.8e-05 s⁻¹ | 0.000351 ± 9.2e-05 s⁻¹ | 
14 | G9A G37C U54G G60U C68U | < 1e-05 s⁻¹ | < 1e-05 s⁻¹ | 
15 | A42U G44C C68U | < 1e-05 s⁻¹ | < 1e-05 s⁻¹ | 
16 | C10U A53U C67A C68G | 4.13e-05 ± 1.9e-05 s⁻¹ |  | 
17 | C11A A42C U46C C71U | < 1e-05 s⁻¹ |  | 
18 | U57G G62C C68U C70G | 4.22e-05 ± 2e-05 s⁻¹ |  | 
19 | A15G A33G A53U | < 1e-05 s⁻¹ |  | 
20 | A48G U55C G59C | < 1e-05 s⁻¹ | < 1e-05 s⁻¹ | 
21 | G29U G32U G38A C61A C67U | 0.000133 ± 3.8e-05 s⁻¹ | 0.00034 ± 9.8e-05 s⁻¹ | 

Row | Variant | self-cleavage kobs at 640 uM GlcN6P [1] | self-cleavage kobs at 2500 uM GlcN6P [2] | self-cleavage kobs at 10000 uM GlcN6P [3]
22 | C11A U31G G35C | < 1e-05 s⁻¹ | < 1e-05 s⁻¹ | 
23 | G13C A39C A42U | < 1e-05 s⁻¹ |  | 
24 | G7C C8A A42U | < 1e-05 s⁻¹ |  | 
25 | G40C U45C A48G | < 1e-05 s⁻¹ | < 1e-05 s⁻¹ | 
26 | U31A G32C C61U | < 1e-05 s⁻¹ |  | 
27 | C11G A36C G38U C50A U65G | < 1e-05 s⁻¹ | < 1e-05 s⁻¹ | < 1e-05 s⁻¹
28 | G41A G63U U65G C70U | < 1e-05 s⁻¹ | < 1e-05 s⁻¹ | 
29 | G35C A36C G40A G62C A64G C70U | < 1e-05 s⁻¹ | < 1e-05 s⁻¹ | 
30 | G29A G37A | 0.000124 ± 3.6e-05 s⁻¹ | 0.000156 ± 5.7e-05 s⁻¹ | 
31 | C10A A14C A64U | < 1e-05 s⁻¹ | < 1e-05 s⁻¹ | 
32 | G9U C34U A39G | < 1e-05 s⁻¹ |  | 
33 | G7C C10U G43U | < 1e-05 s⁻¹ |  | 
34 | U47G A52U C68G | 0.000113 ± 4.9e-05 s⁻¹ |  | 
35 | G32C G35U A36C C68A | < 1e-05 s⁻¹ | < 1e-05 s⁻¹ | 
36 | G43A U49G C50G U57C | < 1e-05 s⁻¹ |  | 
37 | G40U G41A A42U U54G G60U C71U | < 1e-05 s⁻¹ | < 1e-05 s⁻¹ | < 1e-05 s⁻¹
38 | G63U U65C | < 1e-05 s⁻¹ | < 1e-05 s⁻¹ | 
39 | U30G G35A A39U U55C | < 1e-05 s⁻¹ | < 1e-05 s⁻¹ | 
40 | A15C G38U C58A | < 1e-05 s⁻¹ |  | 
41 | G37A U46G C71U | 6.59e-05 ± 3.1e-05 s⁻¹ |  | 
42 | G41U U45A G51C C58G | < 1e-05 s⁻¹ | < 1e-05 s⁻¹ | 

Row | Variant | self-cleavage kobs at 640 uM GlcN6P [1] | self-cleavage kobs at 2500 uM GlcN6P [2] | self-cleavage kobs at 10000 uM GlcN6P [3]
43 | G37C U49C | < 1e-05 s⁻¹ | < 1e-05 s⁻¹ | < 1e-05 s⁻¹
44 | C8U C16A G35C A36U C71G | < 1e-05 s⁻¹ | < 1e-05 s⁻¹ | 
45 | C11U C61G C67A | 0.000183 ± 5.6e-05 s⁻¹ | 0.000446 ± 0.00017 s⁻¹ | 
46 | C8U G9A G29U C58U | < 1e-05 s⁻¹ | < 1e-05 s⁻¹ | 
47 | A12U C50U | 4.86e-05 ± 1.1e-05 s⁻¹ | 9.52e-05 ± 1.7e-05 s⁻¹ | 0.00036 ± 4.5e-05 s⁻¹
48 | A12C C67A C68A | 7.04e-05 ± 1.6e-05 s⁻¹ | 4.41e-05 ± 2.1e-05 s⁻¹ | 
49 | A14U U30G U54C | 0.000624 ± 0.00011 s⁻¹ | 0.00185 ± 0.00046 s⁻¹ | 
50 | U55A U57G | 2.18e-05 ± 1e-05 s⁻¹ | 2.56e-05 ± 7.4e-06 s⁻¹ | 7.86e-05 ± 1.2e-05 s⁻¹
51 | A33C U47G A48C | < 1e-05 s⁻¹ | < 1e-05 s⁻¹ | < 1e-05 s⁻¹
52 | A36U G40U G60U | < 1e-05 s⁻¹ | < 1e-05 s⁻¹ | 
53 | U46A A53G U65G | 0.000479 ± 0.00011 s⁻¹ |  | 
54 | U30G A39U U45G | 0.000324 ± 5.9e-05 s⁻¹ | 0.00055 ± 0.0001 s⁻¹ | 0.0014 ± 0.00018 s⁻¹
55 | U49C A52G U65C | < 1e-05 s⁻¹ |  | 
56 | A14U A33C U57C | 0.0103 ± 0.004 s⁻¹ |  | 
57 | G32U C34A G44A C68A | < 1e-05 s⁻¹ | < 1e-05 s⁻¹ | 
58 | C10G A33C G37A G59U | < 1e-05 s⁻¹ | < 1e-05 s⁻¹ | 
59 | A52C G59A U69G | < 1e-05 s⁻¹ |  | 
60 | A12U G32A G41C G62U C68U | < 1e-05 s⁻¹ | < 1e-05 s⁻¹ | 
61 | C8G A14U A42G | < 1e-05 s⁻¹ |  | 
62 | A6U C67U C70G | 0.000211 ± 6.3e-05 s⁻¹ |  | 
63 | C10U A39U G62A | < 1e-05 s⁻¹ |  | 

— the supplement of paper PMC7125110
